T1: mKO-FtsZ (Escherichia coli, UniProt P0A9A6 1-383)
T1 construct: FtsZ, Escherichia coli; also called Filamenting temperature sensitive Z; source: E. coli TB28 ΔzapA or WT strain, expressed from plasmid, in living cells
T1 sequence (looked up): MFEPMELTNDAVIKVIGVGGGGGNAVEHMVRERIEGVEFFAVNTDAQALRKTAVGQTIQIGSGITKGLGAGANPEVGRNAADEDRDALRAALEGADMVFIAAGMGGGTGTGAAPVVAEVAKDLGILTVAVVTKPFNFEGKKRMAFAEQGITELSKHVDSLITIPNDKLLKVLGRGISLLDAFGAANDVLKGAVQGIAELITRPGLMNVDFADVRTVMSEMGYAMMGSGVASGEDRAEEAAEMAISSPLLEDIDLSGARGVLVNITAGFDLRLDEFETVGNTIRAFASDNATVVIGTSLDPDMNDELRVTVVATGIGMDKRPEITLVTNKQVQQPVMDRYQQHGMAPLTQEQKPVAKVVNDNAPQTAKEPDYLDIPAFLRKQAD

T2: mKO-PBP1a (Escherichia coli, UniProt P02918 1-850)
T2 construct: PBP1a, inner membrane (IM) protein, Escherichia coli; Negative control partner of the FRET assay; source: E. coli TB28 ΔzapA, expressed from plasmid, in living cells
T2 sequence (looked up): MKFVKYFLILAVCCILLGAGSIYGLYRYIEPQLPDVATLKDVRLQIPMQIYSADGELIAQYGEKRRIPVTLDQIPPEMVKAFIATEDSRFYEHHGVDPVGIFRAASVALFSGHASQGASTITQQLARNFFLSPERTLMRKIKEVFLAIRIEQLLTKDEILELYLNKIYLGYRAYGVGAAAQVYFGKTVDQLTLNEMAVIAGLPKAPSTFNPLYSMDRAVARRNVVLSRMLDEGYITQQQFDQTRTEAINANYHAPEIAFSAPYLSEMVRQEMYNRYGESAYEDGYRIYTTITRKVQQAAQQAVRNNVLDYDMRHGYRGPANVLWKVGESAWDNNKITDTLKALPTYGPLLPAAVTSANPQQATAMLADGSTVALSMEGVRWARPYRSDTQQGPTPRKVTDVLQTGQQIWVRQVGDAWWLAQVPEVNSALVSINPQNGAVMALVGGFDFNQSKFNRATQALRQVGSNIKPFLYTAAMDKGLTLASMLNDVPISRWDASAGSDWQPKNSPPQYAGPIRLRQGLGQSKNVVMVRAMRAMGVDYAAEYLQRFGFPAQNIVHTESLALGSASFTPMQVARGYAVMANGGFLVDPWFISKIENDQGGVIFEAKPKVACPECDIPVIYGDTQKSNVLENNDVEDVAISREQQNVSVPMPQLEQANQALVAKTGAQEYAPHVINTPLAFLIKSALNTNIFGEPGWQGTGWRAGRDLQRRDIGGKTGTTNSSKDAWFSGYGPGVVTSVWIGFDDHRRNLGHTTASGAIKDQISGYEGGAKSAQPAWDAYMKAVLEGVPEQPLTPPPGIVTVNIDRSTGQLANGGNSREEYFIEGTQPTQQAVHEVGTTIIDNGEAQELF


What was measured:
[1] = target: T1, mKO-FtsZ; assay: FRET or BRET; in vivo FRET in E. coli TB28 ΔzapA cells, mKO donor and mCh acceptor fusions expressed from plasmids; energy transfer efficiency (EfA) from unmixed emission spectra; conditions: partners not purified
[2] = target: T2, mKO-PBP1a; assay: as above; conditions: partners not purified

Row | energy transfer efficiency (EfA) [1] [%] | energy transfer efficiency (EfA) [2] [%] | Binder
1 | 4 | < 1.7 | mCh-ZapA (wild type ZapA fused to mCh) (natural protein, Escherichia coli, UniProt P0ADS2 1-109, looked up, ZapA (Z associated protein A), Escherichia coli; zapA in plasmid pSAV077; also called mCh-ZapA^WT; ZapA^WT; source: E. coli TB28 ΔzapA or WT strain, expressed from plasmid, in living cells) MSAQPVDIQIFGRSLRVNCPPDQRDALNQAADDLNQRLQDLKERTRVTNTEQLVFIAALNISYELAQEKAKTRDYAASMEQRIRMLQQTIEQALLEQGRITEKTNQNFE
2 | – | < 1.7 | mCh-ZapA^I83E (dimeric ZapA mutant fused to mCh) (natural protein, Escherichia coli, UniProt P0ADS2 1-109, looked up, ZapA (Z associated protein A), Escherichia coli, with I83E; zapA of pSAV077 exchanged for zapA^I83E from pRP071; source: E. coli TB28 ΔzapA or WT strain, expressed from plasmid pNM137, in living cells) MSAQPVDIQIFGRSLRVNCPPDQRDALNQAADDLNQRLQDLKERTRVTNTEQLVFIAALNISYELAQEKAKTRDYAASMEQRERMLQQTIEQALLEQGRITEKTNQNFE
3 | – | < 1.7 | mCh-PBP1b (natural protein, Escherichia coli, UniProt P02919 1-844, looked up, PBP1b, Escherichia coli; Negative control of the FRET assay; source: E. coli TB28 ΔzapA, expressed from plasmid, in living cells) MAGNDREPIGRKGKPTRPVKQKVSRRRYEDDDDYDDYDDYEDEEPMPRKGKGKGKGRKPRGKRGWLWLLLKLAIVFAVLIAIYGVYLDQKIRSRIDGKVWQLPAAVYGRMVNLEPDMTISKNEMVKLLEATQYRQVSKMTRPGEFTVQANSIEMIRRPFDFPDSKEGQVRARLTFDGDHLATIVNMENNRQFGFFRLDPRLITMISSPNGEQRLFVPRSGFPDLLVDTLLATEDRHFYEHDGISLYSIGRAVLANLTAGRTVQGASTLTQQLVKNLFLSSERSYWRKANEAYMALIMDARYSKDRILELYMNEVYLGQSGDNEIRGFPLASLYYFGRPVEELSLDQQALLVGMVKGASIYNPWRNPKLALERRNLVLRLLQQQQIIDQELYDMLSARPLGVQPRGGVISPQPAFMQLVRQELQAKLGDKVKDLSGVKIFTTFDSVAQDAAEKAAVEGIPALKKQRKLSDLETAIVVVDRFSGEVRAMVGGSEPQFAGYNRAMQARRSIGSLAKPATYLTALSQPKIYRLNTWIADAPIALRQPNGQVWSPQNDDRRYSESGRVMLVDALTRSMNVPTVNLGMALGLPAVTETWIKLGVPKDQLHPVPAMLLGALNLTPIEVAQAFQTIASGGNRAPLSALRSVIAEDGKVLYQSFPQAERAVPAQAAYLTLWTMQQVVQRGTGRQLGAKYPNLHLAGKTGTTNNNVDTWFAGIDGSTVTITWVGRDNNQPTKLYGASGAMSIYQRYLANQTPTPLNLVPPEDIADMGVDYDGNFVCSGGMRILPVWTSDPQSLCQQSEMQQQPSGNPFDQSSQPQQQPQQQPAQQEQKDSDGVAGWIKDMFGSN
